Test: soluble on expression in E. coli; label from the status in PepcDB or PDB records

Row | Sequence | soluble on expression in E. coli
1 | SLPWTVRTETCRMPFRIDPKKPFGDEIRRAGLELIDDAVTILRDQPSGSHEAVHDARKRFKRLRALYRLIRKVAPDFAREENTRFRDIARSLAFARDATALVETAEYLEAFAASDTQGEALRSVTVMLRERRDDALDHEAGLDEAIAAAIAGCEKGRERLEDLSLPDDLNKTARLVRTGWAKQRVKARKALSCCREQADVEHFHELRKAGQTYWMHLGLMRRLWPSAMRAKRADTKRLVDILGHEHDLSVLTAVADREPDRFGNGERLALLLAAIIERQQALRAEGLVLADEVFSESARTESRIVGLLWRQAAK | not soluble
2 | SLQCLRFAGAATHPAQAPCMPGPACEPVETFLKTCQAPGSEPTGAASLRAKYLPPSTASIRVSAGLLRAALEDSHSGFHLCSATLRWLLAENAAVDVVRAQTLSSIQGIAPDGTDVNLTVHEVAVTDLSPAGPIQAVEIQVESSSLANMCRAHHAIIRRIQTMVTEQAALGSSPPDLRMQYLQQIHANHQELLREVQALRDQLCTEDELSSCSTAQKLLHIYKQLRNPSLVLL | not soluble
3 | SLQPEAPKPPQIGMANPASVYCQQKGGTLIPVQTAQGVSNNCKLPGGETIDEWALWRLDHPAGEK | soluble
4 | SLQVNTPQTEETANQAKRHVADYTMDGISATALDERGVTKYRFTGVHMNHYEDDLTYDVTFPALRIYAPDRPQVTARADLGKMNGEGSIIDLYDNAKVVRAQGPDLRQDPLMTADSTYFQVLLNDDVVRTDKPVELHRGPSVMNANGLVFNNVTRQVQLLGNVRGRIEGLGAPKQ | soluble
5 | SLSKEKISVQENKKMATIRDISLKCGVSVSTVSKVLNGYREIGEETSKAVMKAAEELGYVPNSYARQLKLKKSYNIGVLFDTLSVYGLKNEYFAHILAALRENASQGGYDITFIENNIGNRRMTYLEHCKYRNFDGICIVCADFTNPEVLDVVNSDFPVVTIDHSFNEAISILSDNSGGMRDLAQYIVSMGHKKIAYIHGNKSSVTHNRLVAFHQVLAEHDIVIPEYYMKEGEYRLAESAEEFTYELLNLSDRPTCILASDDYAALGVIKAIKRAGLRFPEDISVAGFDGISISQALEPKLTTVKQDTEKLGEQAAKKLICLMESPMTTPLEHIVLKAELIIGDSVKKLREG | soluble
6 | SLTGKKAEEEYLYQLEQLNQLFTKTEALEESKIFYKNIKFERGLFASHIQDQIEIHKANETIIIPLSSTLYHGPLPLDRVAKLNFVPAIFSSQTLLGKNATTQAFFDITESEKPLQLNFAMNYSLSGNAELKLASGQYHNEQSKTDFDWSNVVLNIDLNQNTPNNYVLSVDTFNSNAPNHAVSTASSIKIKDLVVQGSLQSTKWPFIYSGNINSKIGYFEQNTESAESGEKFSLIQKNSQANLTTQVEGDTVNIINKTNLDELHINGNNLGKVTNNVEFNHIDGNALQELLNILVAIGKADSECLYLKHWCKNYNKQAWPLRIISLKLSLPLFLFLMKKAKWHWI | not soluble
7 | SLTKKVTIGSYIKFSDSCKRDGLANYSEQGRFWDVHRSQADDVQKIYNQELEFQRLAQRIGNCSGILRFSQIDDDETGKKKLKLRLQEAHFCRVRHCPVCQWRRSLMWQARFYSALPAIIKEYPKARFLFLTLTVKNCHIEDLSDTLRIMNSGWQRLKDRKEFKSVLGWIRSTEVTKGKDGSAHPHFHILLMVPPSWFTHSYVKKSRWAELWAYCARLDYSPVVDIRTVKNCVPEASSGLTEGLKAAVAETLKYSVKPSDMIEGNNWFLQMTKQVHRKRFIASGGVLKNILRESQETNEDLIFADNLNEISDRSRIAFNWRQSEKCYRRFEQGD | soluble
8 | SLTVFQPLVPPDWKMNLRDGELYAQVAFSAAPEQGFRAGGHGVLKGGSAWMPDNQVNGVDFVLPFRFADGAWHLGTRGPVTLRIAEVINLVTAKNITADLQGRYPWTEEEPLLLTDVSVDVLGGNVLMKQLRMPQHDPALLRLNNLSSSELVSAVNPKQFAMSGAFSGALPLWLNNEKWIVKDGWLANSGPMTLRLDKDTADAVVKDNMTAGSAINWLRYMEISRSSTKINLDNLGLLTMQANITGTSRVDGKSGTVNLNYHHEENIFTLWRSLRFGDNLQAWLEQ | not soluble
9 | SLVPQGGPVLCRDEMEEWSASEAMLFEEALEKYGKDFNDIRQDFLPWKSLASIVQFYYMWKTTDRYIQQKRLKAAEAEG | soluble
10 | SLVQHFDTLLVNIGQLLPMESKGPKRGKEMSELQLLEHAALGIRDGKVAFIGTMVEADTFTANQMIDCQGKLVTPGLVDPHTHLIFGGSREHEMALKQQGVPYLEILKNGGGILATVEATRAASEEELITKAICHLNRMLSYGVTTIEAKSGYGLDRETEWKQLRAAKAVGEQHPIDIVSTFLGAHAIPTSHRNDPDRFLDEMADMLGEIKEQNLAEFVDIFTETGVFTVEQSRTFLQKAKERGFGLKLHADEIDPLGGAELAGELGAISADHLVGASDQGIQKMAAAGTIACLLPGTTFYLGKDTYARARDMIDQGLAVTISTDFNPGSSPTENLQLIMSIAALRLKMTPEEIWHAVTVNGAHAIGRGDTAGQLAVGRAADVVVWDAKNYYYVPYHYGVNHVHSVWKKGEVVYERRRAFEGLSISR | soluble
11 | SMHFVQQKVKVFRAADPLVGVFLWGVAHSINELSQVPPPVMLLPDDFKASSKIKVNNHLFHRENLPSHFKFKEYCPQVFRNLRDRFGIDDQDYLVSLTRNPPSESEGSDGRFLISYDRTLVIKEVSSEDIADMHSNLSNYHQYIVKCHGNTLLPQFLGMYRVSVDNEDSYMLVMRNMFSHRLPVHRKYDLKGSLVSREASDKEKVKELPTLRDMDFLNKNQKVYIGEEEKKIFLEKLKRDVEFLVQLKIMDYSLLLGIHDIIRGSEPEEEAPVREDESEVDGDCSLTGPPALVGSYGTSPEGIGGYIHSHRPLGPGEFESFIDVYAIRSAEGAPQKEVYFMGLIDILTQYDAKKKAAHAAKTVKHGAGAEISTVHPEQYAKRFLDFITNIFA | soluble
12 | SMLGPEGGEGFVVKLRGLPWSCSVEDVQNFLSDCTIHDGAAGVHFIYTREGRQSGEAFVELGSEDDVKMALKKDRESMGHRYIEVFKSHRTEMDWVLKHSGPNSADSANDGFVRLRGLPFGCTKEEIVQFFSGLEIVPNGITLPVDPEGKITGEAFVQFASQELAEKALGKHKERIGHRYIEVFKSSQEEVRSYSDPPLKFMSVQRPGPYDRPGTARRYIGIVKQAGLERMRPGAYSTGYGGYEEYSGLSDGYGFTTDLFGRDLSYCLSGMYDHRYGDSEFTVQSTTGHCVHMRGLPYKATENDIYNFFSPLNPVRVHIEIGPDGRVTGEADVEFATHEEAVAAMSKDRANMQHRYIELFLNSTTGASNGAYSSQVMQGMGVSAAQATYSGLESQSVSGCYGAGYSGQNSMGGYD | soluble
13 | SMLSAASRVVSRAAVHCALRSPPPEARALAMSRPPPPRVASVLGTMEMGRRMDAPASAAAVRAFLERGHTELDTAFMYSDGQSETILGGLGLGLGGGDCRVKIATKANPWDGKSLKPDSVRSQLETSLKRLQCPQVDLFYLHAPDHGTPVEETLHACQRLHQEGKFVELGLSNYASWEVAEICTLCKSNGWILPTVYQGMYNATTRQVETELFPCLRHFGLRFYAYNPLAGGLLTGKYKYEDKDGKQPVGRFFGNSWAETYRNRFWKEHHFEAIALVEKALQAAYGASAPSVTSAALRWMYHHSQLQGAHGDAVILGMSSLEQLEQNLAATEEGPLEPAVVDAFNQAWHLVAHECPNYFR | soluble
14 | SMSNDKTGKSLEQENSERDVEIRDRNYFRKLSLFDDTVIAGAEMIGTSYDVFGKYCNVGSCMNSLFDERKINASEDNFKKVTILGKTLKVPYYIDCYSVGDLKYTNASGESIESYQSNISSKSRIKGNYLFFSASLKVDFDTDSLTDFENAFSRIQYTYDLYILKSSAEALKEFLKESVKTALDKADTEEDMNDLFNTWGSHFLSGVVMGGCAQYSSSTNKYTSNLTNSFDVVAAASFAGFIGLSARTGNSFMEDIKKFRSASNIKTHAIGGDLSRFDPFGGATSADQPSAEEIAAAKKAFEDWKASVPNAPELVNFADSNPLTGIWELCSDRTQKAKLKKHFETVWAPAESAKRRVHADYIDEIIIGINNTNTPPEGYIGLKSTKDENLNSKGNICLFMHKAKYDPNIDNKDCITELKFITVRDKSPEGDWVKIPQDIYISPNQYLYLCYLPAKYSAEKAIKDIQLLCSSCGSSMILPYGYNDVLDERGERANATEDDNVHYLIYSAGWK | soluble
15 | SMTEEQPVASWALSFERLLQDPLGLAYFTEFLKKEFSAENVTFWKACERFQQIPASDTQQLAQEARNIYQEFLSSQALSPVNIDRQAWLGEEVLAEPRPDMFRAQQLQIFNLMKFDSYARFVKSPLYRECLLAEAEGRPLREPGSSRLGSPDAT | soluble
16 | SNAIIAGETSIPSQGENMPAYHARPKNADGPLPIVIVVQEIFGVHEHIRDLCRRLAQEGYLAIAPELYFRQGDPNEYHDIPTLFKELVSKVPDAQVLADLDHVASWAARHGGDAHRLLITGFCWGGRITWLYAAHNPQLKAAVAWYGKLVGEKSLNSPKHPVDIAVDLNAPVLGLYGAKDASIPQDTVETMRQALRAANATAEIVVYPEADHAFNADYRASYHEESAKDGWQRMLAWFAQY | soluble
17 | SNAMADGIYGSFENLKKHAGTMTLEAYMRFSAKLSEAKDEMGTKEYEVFTKELKKLTNAKLAYGDANGNIDYDALSPEKREEMKTVSMGLQPYFDKLNGHKSSKEVLTQEEFDRYMEALMTHEIVRVKTKSTGAIKVEEVPEAYKERFMKAEQFMEYVDEKVR | soluble
18 | SNAMADLLLGVNIDHIATLRNARGTIYPDPVQAAFIAEQAGADGITVHLREDRRHITDRDVRILRQTIQTRMNLEMAVTDEMVDIACDIKPHFCCLVPEKRQEVTTEGGLDVAGQVDKMTLAVGRLADVGILVSLFIDADFRQIDAAVAAGAPYIEIHTGAYADASTVLERQAELMRIAKAATYAAGKGLKVNAGHGLTYHNVQPIAALPEMHELNIGHAIIGQAVMTGLAAAVTDMKVLMREARR | soluble
19 | SNAMAKITVGTENQAPIEIYYEDHGTGKPVVLIHGWPLSGRSWEYQVPALVEAGYRVITYDRRGFGKSSQPWEGYEYDTFTSDLHQLLEQLELQNVTLVGFSMGGGEVARYISTYGTDRIEKVVFAGAVPPYLYKSEDHPEGALDDATIETFKSGVINDRLAFLDEFTKGFFAAGDRTDLVSESFRLYNWDIAAGASPKGTLDCITAFSKTDFRKDLEKFNIPTLIIHGDSDATVPFEYSGKLTHEAIPNSKVALIKGGPHGLNATHAKEFNEALLLFLKD | soluble
20 | SNAMEVMLMSKYATLKYADKNIEIELPVYSPSLGNDCIDVSSLVKHGIFTYDPGFMSTAACESKITYIDGGKGVLLHRGYPIEEWTQKSNYRTLCYALIYGELPTDEQVKSFRQEIINKMPVCEHVKAAIAAMPQHTHPMSSLIAGVNVLAAEHIHNGQKESQDEVAKNIVAKIATIAAMAYRHNHGKKFLEPKMEYGYAENFLYMMFADDESYKPDELHIKAMDTIFMLHADHEQNASTSTVRLSGSTGNSPYAAIIAGITALWGPAHGGANEAVLKMLSEIGSTENIDKYIAKAKDKDDPFRLMGFGHRVYKNTDPRATAMKKNCEEILAKLGHSDNPLLTVAKKLEEIALQDEFFIERKLFSNVDFYSGIILKAMGIPEDMFTAIFALARTSGWISQWIEMVNDPAQKIGRPRQLYTGATNRNF | soluble
21 | SNAMLSANQIKFLRSLRERKYRLREQAFAVEGPKLVGEMLPFYRCRMLVGTAAMLRAVSTPHDAEVVELPESFDFKRISTQTTPQPLMAVFDLPAEPEPVVEGLTLLLDGVQDPGNVGTILRTADWFGIRHVWLGTGSADVFSPKVVQASMGALARVQPTPLKNTVDTLAYFRRQGIPVYGAFLDGQSLYEAPLPNFTEPAILVLGSEGRGISPEVAAEITDRLTIPASGLSVKGHTESLNVAIATAILCSEWRRRS | soluble
